Reference: the supplement of paper PMC10126150
± gives the standard deviation of the averaged measurements.

Tested on: ATP
Experiment: switch fluorescence ratio, 500 uM ATP over buffer (Cy3 cluster intensity, sum of 5 cycles each) (fold (ratio)); higher = stronger signal-on switching upon ATP binding; sequences stand for … in TCGTCGGCAGCGTCAGATGTGTATAAGAGACAGTTTTTTTTTTTTTTTTTTTTTTTTT…TC
Conditions: aptamer strand: ATP DNA aptamer (quencher-CACCTGGGGGAGTATTGCGGAGGAAGG + anchor), 100 nM annealed; ATP concentration: 500 uM
How it was run: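 Between each of five buffer/ATP cycles, the flow-cell was stripped with NaOH and re-annealed. Each cycle imaged Cy3-labelled switching-strand clusters, annealed to 100 nM quencher-labelled ATP aptamer on a modified Illumina MiSeq flow-cell, first in selection buffer and then after 15 min with 500 uM ATP at 22 °C. The fluorescence ratio is summed target-cycle over summed buffer-cycle Cy3 intensity per cluster, averaged per switch-domain sequence, with clusters outside 100-1000 RFU excluded.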
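Note: ATP exposure 15 min at 22 °C before imaging.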

## GGGGGCCTGG
  switch fluorescence ratio: 0.979 ± 0.019

## ATTATGGTTC
  switch fluorescence ratio: 1 ± 0.021

## TTTGTGATGG
  switch fluorescence ratio: 0.954 ± 0.026

## ATTTTTTGAC
  switch fluorescence ratio: 0.9915 ± 0.0011

## AACTTTCCGA
  switch fluorescence ratio: 2.36 ± 0.39

## GGGCCTTTAT
  switch fluorescence ratio: 1.017 ± 0.0089

## ATTCATGCTC
  switch fluorescence ratio: 1.03 ± 0.031

## TTCTTACTGG
  switch fluorescence ratio: 0.995 ± 0.021

## ATGATAGATA
  switch fluorescence ratio: 1.004 ± 0.0047

## TGGGTTAGCC
  switch fluorescence ratio: 1.01 ± 0.038

## TATACAAATT
  switch fluorescence ratio: 0.989 ± 0.043

## TTAAACGTAG
  switch fluorescence ratio: 1 ± 0.045

## TTGGTACGGA
  switch fluorescence ratio: 0.986 ± 0.019

## TTATACATGG
  switch fluorescence ratio: 1.07 ± 0.0024

## CTGGGTTTAT
  switch fluorescence ratio: 1 ± 0.042

## GCTAGTAAGA
  switch fluorescence ratio: 1.014 ± 0.008

## GATCGACTGG
  switch fluorescence ratio: 1.029 ± 0.0075

## ATAGGGGGGT
  switch fluorescence ratio: 1.02 ± 0.018

## TGGTAGGTA
  switch fluorescence ratio: 0.987 ± 0.013

## CTGAGGGAGC
  switch fluorescence ratio: 1.09 ± 0.061

## TTTTTTTGCT
  switch fluorescence ratio: 0.994 ± 0.024

## TATCAACTTG
  switch fluorescence ratio: 1.02 ± 0.037

## GAAGGAATGT
  switch fluorescence ratio: 1 ± 0.022

## CATTTTGATG
  switch fluorescence ratio: 0.966 ± 0.011

## GGGGAATGCA
  switch fluorescence ratio: 1.01 ± 0.034

## GAAGTAAGAG
  switch fluorescence ratio: 1.11 ± 0.019

## TGGATTATGT
  switch fluorescence ratio: 1.005 ± 0.0045

## CACTTGGAAG
  switch fluorescence ratio: 1 ± 0.028

## AATTCCTACG
  switch fluorescence ratio: 2.571 ± 0.02

## AGCTTGGGGG
  switch fluorescence ratio: 0.995 ± 0.027

## CTGAATCCTA
  switch fluorescence ratio: 1.01 ± 0.017

## CTCATATTCA
  switch fluorescence ratio: 1.02 ± 0.027

## TGTTGGGCAG
  switch fluorescence ratio: 0.9634 ± 0.0089

## GATTATGATT
  switch fluorescence ratio: 0.971 ± 0.013

## TAGTAGGTAC
  switch fluorescence ratio: 1.04 ± 0.025

## TTTGGGGGG
  switch fluorescence ratio: 1.05 ± 0.046

## GATGTTGTGT
  switch fluorescence ratio: 0.9802 ± 0.0091

## ATGAGCGTCA
  switch fluorescence ratio: 0.9904 ± 0.0017

## AGCGTCTGGG
  switch fluorescence ratio: 1.0291 ± 0.00058

## TATGCTGGAT
  switch fluorescence ratio: 1.02 ± 0.059

## TGCATTTACT
  switch fluorescence ratio: 1.133 ± 0.0035

## AGTTTGGCAT
  switch fluorescence ratio: 0.9958 ± 0.0071

## GTTTTAAGGT
  switch fluorescence ratio: 1.017 ± 0.0067

## AAAGTGCTCC
  switch fluorescence ratio: 1.095 ± 0.0075

## CAGGGCTATT
  switch fluorescence ratio: 1.01 ± 0.037

## TCCTCAAGTT
  switch fluorescence ratio: 1.23 ± 0.015

## TTCGGCAACG
  switch fluorescence ratio: 0.997 ± 0.035

## GTGTGTGGCT
  switch fluorescence ratio: 0.976 ± 0.051

## CTCGTCCCCG
  switch fluorescence ratio: 0.994 ± 0.06

## GGGGTAAGAA
  switch fluorescence ratio: 0.981 ± 0.034

## TCCGGGGGAG
  switch fluorescence ratio: 1 ± 0.023

## ATTTGTCTGG
  switch fluorescence ratio: 0.9643 ± 0.0028

## GGTACCTTTG
  switch fluorescence ratio: 0.9729 ± 0.009

## GAACGTCTAC
  switch fluorescence ratio: 1.28 ± 0.056

## TTTCTGGCGA
  switch fluorescence ratio: 1.054 ± 0.01

## TTTGAGTAAG
  switch fluorescence ratio: 1.02 ± 0.046

## CCACGGGTTA
  switch fluorescence ratio: 1.045 ± 0.005

## CCTTCACCGT
  switch fluorescence ratio: 2.21 ± 0.14

## AAACCAGGTA
  switch fluorescence ratio: 1.18 ± 0.048

## ACGGTCTTGG
  switch fluorescence ratio: 0.999 ± 0.015

## GAAAGTGCTA
  switch fluorescence ratio: 1.07 ± 0.03

## AAGCATCATA
  switch fluorescence ratio: 0.988 ± 0.021

## GAGGTGTTGC
  switch fluorescence ratio: 0.985 ± 0.035

## ACCGTTTTTT
  switch fluorescence ratio: 1 ± 0.017

## TGTCGGCTGC
  switch fluorescence ratio: 1.09 ± 0.015

## TGGTATTTTA
  switch fluorescence ratio: 0.982 ± 0.028

## ATAGAGGCTG
  switch fluorescence ratio: 1.04 ± 0.064

## AAGGCGCGGT
  switch fluorescence ratio: 1.03 ± 0.011

## ACGATCAGCG
  switch fluorescence ratio: 1.022 ± 0.0037

## TAAACGAGGG
  switch fluorescence ratio: 1.01 ± 0.014

## GAGGCGGTGG
  switch fluorescence ratio: 1.009 ± 0.005

## ATCGGGATTA
  switch fluorescence ratio: 0.987 ± 0.021

## AAGGAAACAC
  switch fluorescence ratio: 1.96 ± 1.3

## TTTTAGTT
  switch fluorescence ratio: 0.993 ± 0.039

## AAACTTTTTT
  switch fluorescence ratio: 0.9566 ± 0.0049

## TGGGACGCCT
  switch fluorescence ratio: 1.06 ± 0.14

## GTTGTGGTTA
  switch fluorescence ratio: 1.02 ± 0.015

## GTTTGTACGT
  switch fluorescence ratio: 0.975 ± 0.038

## TTGGGGAAAC
  switch fluorescence ratio: 0.99 ± 0.029

## AGTAGGGGCC
  switch fluorescence ratio: 1.012 ± 0.0083

## AGTTCCATTT
  switch fluorescence ratio: 0.97 ± 0.028

## ACTGGGGGAG
  switch fluorescence ratio: 1.02 ± 0.015

## TTGTTTTATG
  switch fluorescence ratio: 0.998 ± 0.022

## TATAATTTCG
  switch fluorescence ratio: 1.003 ± 0.0024

## AGCGACGGAC
  switch fluorescence ratio: 1.42 ± 0.1

## TGTCGGTGTC
  switch fluorescence ratio: 1.01 ± 0.028

## AGAGATTCAC
  switch fluorescence ratio: 1.03 ± 0.013

## GGGTCATTGA
  switch fluorescence ratio: 0.998 ± 0.024

## TTATAGCCTT
  switch fluorescence ratio: 1.04 ± 0.046

## TTGGCGTCCG
  switch fluorescence ratio: 0.988 ± 0.047

## CTCACCCGGA
  switch fluorescence ratio: 1.18 ± 0.012

## TCTGTCAAGG
  switch fluorescence ratio: 1 ± 0.034

## CTGAGGCTGA
  switch fluorescence ratio: 1.12 ± 0.11

## CCCGGATTTG
  switch fluorescence ratio: 1.01 ± 0.055

## GCCTTTTGCC
  switch fluorescence ratio: 1.044 ± 0.0094

## GAAAAAGCAA
  switch fluorescence ratio: 1.14 ± 0.054

## TACGGAGGGC
  switch fluorescence ratio: 1.02 ± 0.05

## CTGGGATATA
  switch fluorescence ratio: 1 ± 0.04

## GTAGTAAGCG
  switch fluorescence ratio: 0.953 ± 0.045

## GGTAGCGAAG
  switch fluorescence ratio: 0.97 ± 0.026

## GCGTCCGGGA
  switch fluorescence ratio: 1.21 ± 0.092

## CCACTGTGGT
  switch fluorescence ratio: 0.978 ± 0.013

## AGTTTCTGTG
  switch fluorescence ratio: 0.968 ± 0.059

## ATACGTGGCA
  switch fluorescence ratio: 0.9601 ± 0.0037

## GGGCTTGGCT
  switch fluorescence ratio: 0.9851 ± 0.0065

## ATGCGAGTAT
  switch fluorescence ratio: 1.023 ± 0.0018

## TGATGCTGTA
  switch fluorescence ratio: 0.977 ± 0.063

## CTGCAAGGGA
  switch fluorescence ratio: 1.06 ± 0.051

## AATTAATTCC
  switch fluorescence ratio: 1.07 ± 0.026

## TGCAGGTCTT
  switch fluorescence ratio: 1 ± 0.052

## GAGTATTCGG
  switch fluorescence ratio: 0.998 ± 0.031

## GGCTGTATTT
  switch fluorescence ratio: 0.9965 ± 0.0031

## GAGAGTGGCA
  switch fluorescence ratio: 0.988 ± 0.031

## AGAGGCGGGA
  switch fluorescence ratio: 0.956 ± 0.11

## TACAGAAGCG
  switch fluorescence ratio: 1.033 ± 0.0073

## GAGCGAATAG
  switch fluorescence ratio: 1.46 ± 0.055

## AGGAGGGAG
  switch fluorescence ratio: 1.003 ± 0.0093

## AGCTAGAGCT
  switch fluorescence ratio: 0.963 ± 0.033

## CAGAGTAATA
  switch fluorescence ratio: 1.45 ± 0.1

## GCCAGTCTGG
  switch fluorescence ratio: 0.987 ± 0.025

## GTGAGATATT
  switch fluorescence ratio: 0.989 ± 0.043

## TATGGCTCTA
  switch fluorescence ratio: 0.9731 ± 0.00019

## TAGGGGTGTA
  switch fluorescence ratio: 1 ± 0.04

## CGATTTGAGG
  switch fluorescence ratio: 0.9967 ± 0.0079

## CACTTGACGT
  switch fluorescence ratio: 1.21 ± 0.034

## CGTGAATTTG
  switch fluorescence ratio: 0.987 ± 0.026

## GGGGAAGGTA
  switch fluorescence ratio: 0.978 ± 0.019

## GATCGGGGGA
  switch fluorescence ratio: 1.02 ± 0.015

## GGGGCAGGAT
  switch fluorescence ratio: 1.22 ± 0.34

## GGCTAGCCAG
  switch fluorescence ratio: 1.01 ± 0.011

## TTTGGTGTTG
  switch fluorescence ratio: 0.987 ± 0.022

## GTATGGCTAG
  switch fluorescence ratio: 0.978 ± 0.029

## GGGCGCCCCC
  switch fluorescence ratio: 1.08 ± 0.14

## CCTGGTTTTG
  switch fluorescence ratio: 1.04 ± 0.028

## TAAGGTAAAA
  switch fluorescence ratio: 1.001 ± 0.0041

## TTAAGGTTGC
  switch fluorescence ratio: 0.989 ± 0.019

## CTTTGGCTTC
  switch fluorescence ratio: 0.9876 ± 0.0039

## TGGCGATTGG
  switch fluorescence ratio: 0.985 ± 0.023

## AGAGACACAT
  switch fluorescence ratio: 1 ± 0.0086

## TTACGTGGTT
  switch fluorescence ratio: 1.07 ± 0.026

## TAATATCGGG
  switch fluorescence ratio: 0.98 ± 0.027

## AGTGGTGCCG
  switch fluorescence ratio: 0.989 ± 0.02

## TCCGGGTATT
  switch fluorescence ratio: 1.078 ± 0.0025

## TCATGTGCGG
  switch fluorescence ratio: 0.9639 ± 0.0022

## ATTTTAATCG
  switch fluorescence ratio: 0.985 ± 0.03

## TTGGCGTATT
  switch fluorescence ratio: 1.01 ± 0.071

## ACTAGTTGTC
  switch fluorescence ratio: 0.991 ± 0.033

## GGATAGGATG
  switch fluorescence ratio: 0.974 ± 0.022

## GAAGTCGTT
  switch fluorescence ratio: 0.973 ± 0.0057

## TATCACATTG
  switch fluorescence ratio: 0.992 ± 0.039

## GTCGTGCGTA
  switch fluorescence ratio: 1.03 ± 0.099

## TGGGGGGCAA
  switch fluorescence ratio: 1.56 ± 1.1

## ACGATTTGGT
  switch fluorescence ratio: 1 ± 0.013

## TGCCTTATTT
  switch fluorescence ratio: 0.9999 ± 0.0049

## GACGAAAATC
  switch fluorescence ratio: 1.2 ± 0.032

## GCTTATTAGT
  switch fluorescence ratio: 1 ± 0.0042

## CCGGTGCCAA
  switch fluorescence ratio: 3.85 ± 0.21
